T1: HIP receptor (EXTL3) (human, UniProt O43909 1-919)
T1 construct: whole, on cells; Endogenous protein of PANC-1 cells, seen by immunostaining and Western blot; also called receptor for Human ProIslet Peptide
T1 sequence (looked up): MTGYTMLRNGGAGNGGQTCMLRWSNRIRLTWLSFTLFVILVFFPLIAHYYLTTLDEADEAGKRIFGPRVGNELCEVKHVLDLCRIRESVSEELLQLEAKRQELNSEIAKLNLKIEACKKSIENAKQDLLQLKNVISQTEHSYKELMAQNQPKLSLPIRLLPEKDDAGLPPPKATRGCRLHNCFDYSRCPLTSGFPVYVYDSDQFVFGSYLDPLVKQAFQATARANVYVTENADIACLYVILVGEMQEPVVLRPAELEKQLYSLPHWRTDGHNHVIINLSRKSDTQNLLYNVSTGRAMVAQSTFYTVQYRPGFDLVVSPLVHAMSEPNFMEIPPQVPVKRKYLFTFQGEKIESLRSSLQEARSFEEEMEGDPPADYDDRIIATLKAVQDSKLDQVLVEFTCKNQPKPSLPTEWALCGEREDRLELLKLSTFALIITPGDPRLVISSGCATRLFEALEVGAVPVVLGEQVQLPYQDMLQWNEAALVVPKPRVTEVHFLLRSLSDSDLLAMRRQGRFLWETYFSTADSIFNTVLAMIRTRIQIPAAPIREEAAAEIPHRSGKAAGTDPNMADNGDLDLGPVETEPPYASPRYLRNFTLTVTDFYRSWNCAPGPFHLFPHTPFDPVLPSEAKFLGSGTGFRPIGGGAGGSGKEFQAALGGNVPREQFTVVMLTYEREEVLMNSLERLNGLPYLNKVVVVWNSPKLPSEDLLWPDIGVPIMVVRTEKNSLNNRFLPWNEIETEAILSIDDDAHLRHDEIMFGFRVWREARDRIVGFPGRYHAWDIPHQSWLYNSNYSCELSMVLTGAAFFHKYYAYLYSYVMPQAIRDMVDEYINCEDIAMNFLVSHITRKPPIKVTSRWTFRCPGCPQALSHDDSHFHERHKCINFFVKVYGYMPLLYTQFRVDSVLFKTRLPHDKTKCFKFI


Biological target: T1, HIP receptor (EXTL3)
Assay: receptor immunostaining and trafficking in PANC-1 cells (indirect)
Protocol: The upper panels indicated by the Cy3 immunofluorescent staining of EXTL3 (red). In the lower panel of images the Cy3 immunostaining of EXTL3 has been overlaid with DAPI (blue) staining of the nuclei. Cells were grown in standard growth medium as a control and compared to cells grown serum-free medium (SFM) in the presence or absence of HIP. […] The cell borders are well-defined indicating surface expression of EXTL3 on the plasma membrane. The yellow arrows delineate the cell borders while the nuclei are shown in blue. The middle images are cells grown in SFM. EXTL3 is localized in the cytoplasm as indicated by cytoplasmic Cy3 staining. The green arrows show the lack of staining in the position of the nuclei. […] In the lower image of cells grown in SFM and HIP, the blue arrows indicate the position of the nuclei. In the lower image there is an overlap of EXTL3-Cy3 staining and nuclear DAPI staining that corroborates the nuclear localization of EXTL3 (blue arrows). Scale bar=20 μm in all images.

Binder | binding result
Ac-IGLHDPTQGTEPNG-NH2 (also called Optimized HIP2B) [HIP2Blocked (Ac-Ile-Gly-Leu-His-Asp-Pro-Thr-Gln-Gly-Thr-Glu-Pro-Asn-Gly-NH2)] | binds
IGLHDPTQGTEPNG [HIP2 (Human proIslet Peptide, Ile-Gly-Leu-His-Asp-Pro-Thr-Gln-Gly-Thr-Glu-Pro-Asn-Gly)] | binds

Source: US20110171178A1 (CUREDM GROUP, published 2011)
